Reference: patent publication US20080234198A1 (Eli Lilly, published 2008)
*1 amine or outer side, *2 acyl side, *3 side chain or, on linkers, in order; H or OH if unused. [ ]: non-standard residue; d: D form. The star is where a group is joined. Tyr(OMe) = methoxy tyrosine, COc1ccc(C[C@H](N[*:1])C(=O)[*:2])cc1; WPEG40K = not defined here; Orn = NCCC[C@H](N)C(=O)O; Abu = CC[C@H](N)C(=O)O; Hexanoyl = CCCCCC(=O)*; Aib = CC(C)(N)C(=O)O

T1: human VPAC2 receptor (human, UniProt P41587 24-438)
T1 sequence (looked up): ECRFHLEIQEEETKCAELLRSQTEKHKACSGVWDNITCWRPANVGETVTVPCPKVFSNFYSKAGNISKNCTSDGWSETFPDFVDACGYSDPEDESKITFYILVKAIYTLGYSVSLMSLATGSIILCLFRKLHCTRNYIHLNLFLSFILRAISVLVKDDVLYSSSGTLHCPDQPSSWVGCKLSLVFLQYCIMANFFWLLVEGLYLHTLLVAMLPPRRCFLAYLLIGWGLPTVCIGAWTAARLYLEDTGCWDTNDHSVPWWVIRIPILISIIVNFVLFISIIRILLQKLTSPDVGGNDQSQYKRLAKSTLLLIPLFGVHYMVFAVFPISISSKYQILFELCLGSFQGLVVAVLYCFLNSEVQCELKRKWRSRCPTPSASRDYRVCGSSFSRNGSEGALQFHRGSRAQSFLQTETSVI

T2: rat VPAC2 receptor (rat, UniProt P35000 23-437)
T2 sequence (looked up): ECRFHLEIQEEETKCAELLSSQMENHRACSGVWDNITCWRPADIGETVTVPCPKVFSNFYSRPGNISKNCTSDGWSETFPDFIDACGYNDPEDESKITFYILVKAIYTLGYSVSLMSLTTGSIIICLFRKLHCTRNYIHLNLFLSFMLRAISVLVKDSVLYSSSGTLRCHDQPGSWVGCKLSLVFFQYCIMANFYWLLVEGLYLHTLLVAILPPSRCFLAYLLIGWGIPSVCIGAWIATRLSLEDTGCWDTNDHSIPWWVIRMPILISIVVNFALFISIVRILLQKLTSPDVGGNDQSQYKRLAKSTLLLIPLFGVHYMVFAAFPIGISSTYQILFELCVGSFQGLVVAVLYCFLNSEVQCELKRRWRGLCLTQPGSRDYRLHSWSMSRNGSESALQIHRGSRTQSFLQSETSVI

T3: rat VPAC1 receptor (rat, UniProt P30083 31-459)
T3 sequence (looked up): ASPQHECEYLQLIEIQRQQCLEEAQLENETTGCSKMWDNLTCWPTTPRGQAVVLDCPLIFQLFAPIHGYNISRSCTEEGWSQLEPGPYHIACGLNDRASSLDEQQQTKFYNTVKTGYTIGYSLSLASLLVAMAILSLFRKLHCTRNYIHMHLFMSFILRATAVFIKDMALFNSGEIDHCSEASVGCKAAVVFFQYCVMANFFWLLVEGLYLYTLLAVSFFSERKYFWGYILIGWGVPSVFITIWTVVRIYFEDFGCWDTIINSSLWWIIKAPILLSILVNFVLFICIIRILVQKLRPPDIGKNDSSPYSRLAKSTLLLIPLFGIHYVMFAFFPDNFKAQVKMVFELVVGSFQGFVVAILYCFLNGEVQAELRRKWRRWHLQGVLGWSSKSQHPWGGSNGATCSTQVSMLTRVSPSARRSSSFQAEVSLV


Experiments:
[1] = molecular target: T1, human VPAC2 receptor; test: cell-based or functional assay
[2] = molecular target: T1, human VPAC2 receptor; test: filter binding, VPAC2 cell membranes, displacement of 125I-VIP
Experimental: Binding assays: Membrane prepared from a stable VPAC2 cell line (see Example 3) or from cells transiently transfected with human VPAC1 or PAC1 are used.
The assay plate is filled with 25 μL assay buffer, 25 μL membranes (2.5 μg) suspended in assay buffer, 25 μL agonist in assay buffer, and 25 μL tracer (about 40000 cpm) in assay buffer. The filled plate is incubated for 1 hour with shaking.
The transfer from assay plate to filter plate is conducted. The blocking buffer is aspirated by vacuum filtration and washed two times with flush buffer. 90 μL is transferred from the assay plate to the filter plate. The 90 μL transferred from assay plate is aspirated and washed three times with 200 μL flush buffer. The plastic support is removed. It is dried for 1 hour at 60° C. 30 μL Microscint is added. The count is performed.

[3] = molecular target: T2, rat VPAC2 receptor; test: cell-based or functional assay
[4] = molecular target: T3, rat VPAC1 receptor; test: cell-based or functional assay

| Binder | Human VPAC2 Receptor: Alphascreen (EC50; nM) [1] [nM] | IC50 [2] [nM] | Rat VPAC2 Receptor: DiscoveRx: (EC50; nM) [3] [nM] | Rat VPAC1 Receptor: DiscoveRx: (EC50; nM) [4] [nM] | Human VPAC2 Receptor: DiscoveRx (EC50; nM) [1] [nM] |
| --- | --- | --- | --- | --- | --- |
| HSDAVFTEQYTXLRXQLAXXXYLQSIXXGGPSSGAPPPCC (C6-HSDAVFTEQY(OMe)TOrnLRAibQLAAbuAibOrnYLQSIOrnOrnGGPSSGAPPPC(PEG20K)C(PEG20K)-NH2) [P523] | 5.8 | 4.8 | 5.3 | 20.4 | – |
| HSDAVFTEQYTXLRXQLAXXXYLQXIXXGGPSSGAPPPCC (C6-HSDAVFTEQY(OMe)TOrnLRAibQLAAbuAibOrnYLQAibIOrnOrnGGPSSGAPPPC(PEG30K)C(PEG30K)-NH2) [P570] | 13.4 | 4.1 | 21.3 | 86.7 | 4.5 |
| HSDAVFTEQYTXLRXQLAXXXYXQXIXXGGPSSGAPPPCC (C6-HSDAVFTEQY(OMe)TOrnLRAibQLAAbuAibOrnYAibQAibIOrnOrnGGPSSGAPPPC(PEG20K)C(PEG20K)-NH2) [P525] | 25 | 41.8 | 44 | 1140 | – |
| HSDAVFTEQYTXLRXQVAAXXYLQSIXXGGPSSGAPPPS (not fully specified; C6-HSDAVFTEQY(OMe)TOrnLRK(WPEG40K)QVAAAibOrnYLQSIOrnOrnGGPSSGAPPPS-NH2) [P529] | 170 | 192 | 199 | 1180 | – |
| HSDAVFTEQYTXLRXQVAAXXYLQSIXXGGPSSGAPPPS (C6-HSDAVFTEQY(OMe)TOrnLRAibQVAAK(CO(CH2)2SPEG40K)OrnYLQSIOrnOrnGGPSSGAPPPS-NH2) [P475] | 109 | 436 | 220 | > 1000 | – |
| HSDAVFTEQYTXLRXQVAAXXYLXSIXXGGPSSGAPPPC (C6-HSDAVFTEQY(OMe)TOrnLRAibQVAAAibOrnYLK(CO(CH2)2SPEG20K)SIOrnOrnGGPSSGAPPPC(PEG20K)-NH2) [P490] | 116 | 13.2 | 192 | > 1000 | – |
| HSDAVFTEQYTXLRCQVAAXXYLQSIXXGGPSSGAPPPS (C6-HSDAVFTEQY(OMe)TOrnLRC(PEG40K)QVAAAibOrnYLQSIOrnOrnGGPSSGAPPPS-NH2) [P483] | 33.5 | 37.3 | 128 | 224 | – |
| HSDAVFTEQYTXLRXQVAAXXYLXSIXXGGPSSGAPPPS (C6-HSDAVFTEQY(OMe)TOrnLRAibQVAAAibOrnYLK(WPEG40K)SIOrnOrnGGPSSGAPPPS-NH2) [P531] | 94.6 | 69.7 | 69.9 | 301 | – |
| C6-HSDAVFTEQ[Tyr(OMe)]T[Orn]LRC(PEG 40 kDa)QLA[Abu][Aib][Orn]YLQ[Aib]I[Orn][Orn]GGPSSGAPPPS-NH2 [P547] | 62 | 5.6 | 150 | 76.2 | – |
| Hexanoyl-HSDAVFTEQ[Tyr(OMe)]T[Orn]LRK(WPEG40K)QLA[Abu][Aib][Orn]YLQ[Aib]I[Orn][Orn]GGPSSGAPPPS-NH2 (reading uncertain) [P557] | – | 380 | 397 | 581 | 108 |
| HSDAVFTEQYTXLRXQLAXXXYLQXIXCXGGPSSGAPPPS (C6-HSDAVFTEQY(OMe)TOrnLRAibQLAAbuAibOrnYLQAibIOrnC(PEG40K)OrnGGPSSGAPPPS-NH2) [P537] | 32 | 17.2 | 38.8 | 206 | – |
| HSDAVFTEQYTXLRXQLAXXXYLQSIXXXGGPSSGAPPPC (C6-HSDAVFTEQY(OMe)TOrnLRAibQLAAbuAibOrnYLQSIOrnK(CO(CH2)2SPEG20K)OrnGGPSSGAPPPC(PEG20K)-NH2) [P551] | 15.6 | 16.6 | 13.2 | 172 | – |
| HSDAVFTEQYTXLRXQLAXXXYLQSIXCXGGPSSGAPPPS (C6-HSDAVFTEQY(OMe)TOrnLRAibQLAAbuAibOrnYLQSIOrnC(PEG40K)OrnGGPSSGAPPPS-NH2) [P539] | 10.7 | 13.5 | 21 | 32.6 | 47.3 |
| HSDAVFTEQYTXLRXQLAAXXYLQSIXXCGGPSSGAPPPS (C6-HSDAVFTEQY(OMe)TOrnLRAibQLAAAibOrnYLQSIOrnOrnC(PEG40K)GGPSSGAPPPS-NH2) [P560] | 13.8 | 11.6 | 20.4 | 156 | 11.3 |
| HSDAVFTEQYTXLRXQLAXXXYLQSIXXCGGPSSGAPPPS (C6-HSDAVFTEQY(OMe)TOrnLRAibQLAAbuAibOrnYLQSIOrnOrnC(PEG40K)GGPSSGAPPPS-NH2) [P566] | 11.8 | 8.2 | 13.1 | 52.7 | 7.8 |
| HSDAVFTEQYTXLRXQVAAXXYLQSIXXCGGPSSGAPPPC (C6-HSDAVFTEQY(OMe)TOrnLRAibQVAAAibOrnYLQSIOrnOrnC(PEG20K)GGPSSGAPPPC(PEG20K)-NH2) [P562] | 30.2 | 42.8 | 52.5 | 393 | 24.2 |
| HSDAVFTEQYTXLRXQLAXXXYLQSIXCXGGPSSGAPPPC (C6-HSDAVFTEQY(OMe)TOrnLRAibQLAAbuAibOrnYLQSIOrnC(PEG20K)OrnGGPSSGAPPPC(PEG20K)-NH2) [P555] | 22.5 | 15.4 | 32.5 | 68.9 | 8.1 |
| HSDAVFTEQYTXLRXQLAXXXYLQXIXCXGGPSSGAPPPC (C6-HSDAVFTEQY(OMe)TOrnLRAibQLAAbuAibOrnYLQAibIOrnC(PEG20K)OrnGGPSSGAPPPC(PEG20K)-NH2) [P553] | 15 | 21.7 | 22 | 262 | – |
| HSDAVFTEQYTXLRXQLAXXXYLQSIXXCGGPSSGAPPPC (C6-HSDAVFTEQY(OMe)TOrnLRAibQLAAbuAibOrnYLQSIOrnOrnC(PEG20K)GGPSSGAPPPC(PEG20K)-NH2) [P572] | 11.2 | 14.9 | 10.8 | 94.5 | – |
